This is an account of results in US20260125649A1, “MEDIUM COMPOSITION AND METHOD FOR CULTURING MESENCHYMAL STEM CELLS” (ACADEMIA SINICA, priority 2018, published 2026).

The test system of one assay is γ-secretase. Put plainly: γ-secretase activity assay in MSC lysates. Particulars: EpEX-stimulated MSCs. Type of assay: cell-based, human. The method, then: (§1) FIG. 9. EpEX induces the phosphorylation and activity of TACE and γ-secretase. MSCs were stimulated by EpEX for the indicated times, and the activity of TACE and γ-secretase were detected. MSCs were stimulated by EpEX (3 μg/mL) for the indicated times. Western blot analysis was performed to detect the phosphorylation of TACE and Presenilin 2.
(§2) ADAM17 activity was measured using the InnoZyme ADAM17 activity kit (Calbiochem). In brief, cell lysates were harvested and loaded into a TACE antibody-coated plate. After 1 h incubation, the lysate was removed and the plate was washed twice. Substrate was added into each well for 5 h at 37° C. After incubation, the fluorescence signal of the reaction product was detected at excitation of 324 nm and emission of 405 nm. For the detection of γ-secretase activity, cell lysates were extracted and 500 μg protein was used. γ-secretase activity was detected by γ-secretase substrate (35 μM).

The next assay addresses T1, EGFR (Tyr845) (Homo sapiens, UniProt P00533).
T1 construct: host or cells: human primary bone marrow mesenchymal stem cells (BMMSCs)
Put plainly: EGFR phosphorylation (antibody array, Western blotting). It counts as cell-based. Particulars: MSCs treated with the substance (EpEX 3 μg/mL).

Assay [1] concerns human bone marrow-derived MSCs. Put plainly: MSC doubling time (cell number counted). Type of assay: cell-based. How it is done: The proliferation of MSCs was examined by measuring doubling time. MSCs were treated with EpEX (3 μg/mL) for 24 and 48 h. Cell number was counted and then doubling time was calculated. MSCs were treated with EpEX (3 μg/mL) for the indicated times. After treatment, protein expression of cell cycle regulators (cyclin D1, cyclin D2, cyclin D3, cyclin E1, CDK4 and CDK9) and pluripotency factors (Oct4, Sox2, c-Myc, and Lin28) was examined by Western blotting.
All experiments with primary human cells were conducted in accordance with relevant guidelines and regulations. Human primary bone marrow mesenchymal stem cells (BMMSCs) were purchased from LONZA and were cultured with Dulbecco's Modified Eagle Media-low glucose (DMEM-LG) medium containing 16.6% FBS, 1 mM L-glutamine (Invitrogen), 100 μg/ml Penicillin/Streptomycin (Gibco). All cells were cultured at 37° C. and 5% CO2. All experiments on primary cells were performed within 10 passages.
We used human bone marrow-derived MSCs to study the effects of EpEX and first investigated whether EpEX promotes cell proliferation of MSCs. […] Next, we examined the effect of EpEX on cell cycle progression by flow cytometry with propidium iodide (PI) staining. […] EpCAM has been reported to enhance cell cycle progression through upregulation of the proto-oncogene c-Myc and cyclin A/E (Munz et al., 2004). […]

For a further assay, the system named is TACE. In words: TACE activity assay in MSC lysates. It counts as cell-based, human. The following applies: EpEX-stimulated MSCs. The method, then: as §1, §2

“And” between values parts separate entries of the source, which are not always exact repeats. Equal values may be shown once. “Also recorded” adds a separate entry of the source.

Method for EGFR (Tyr845): Phospho-EGFR (Tyr845) was detected by Western blotting. […] After treatment, cell cycle progression was investigated by flow cytometry with PI staining. Fraction of cells in each phase (G1, S, G2/M) of the cell cycle was evaluated. Cells that expressed EGFR shRNA or shLuc were treated with EpEX for 18 h. After treatment, cell cycle progression was investigated by flow cytometry with PI staining. Fraction of cells in each phase (G1, S, G2/M) of the cell cycle was evaluated. […] The protein expression of cell cycle regulators (cyclin D1, cyclin D2, cyclin E1) and pluripotency factors (Oct4, Sox2, c-Myc, Lin28) was examined by Western blotting. MSCs expressing EGFR shRNA were stimulated by EpEX. After treatment, the protein expression of cell cycle regulators (cyclin D1, cyclin E1, CDK4 and CDK9) and pluripotency factors (Oct4, in Sox2, c-Myc, and Lin 28) was examined by Western blotting. […] After treatment, the gene expression of pluripotency factors (Oct4, Sox2, c-Myc, Lin28 and EpCAM) was examined by qPCR.
The phosphorylation of EGFR (Tyr845) and STAT3 (Tyr705) were examined by Western blotting with specific antibodies.
Western blotting was performed as previously described (Takahashi et al., 2003). Cells were lysed in lysis buffer (150 mM NaCl, 50 mM Tris-HCl (pH 7.4), 1% Nonidet P-40), containing a protease inhibitor mix (Roche Applied Science). Nuclear fractions and cytoplasmic fractions were separated by the Nuclear/Cytosol Fractionation Kit according to the manufacturer's instructions (BioVision Inc., Milpitas, CA, USA). Protein samples were separated by SDS-PAGE under denaturing conditions, and transferred to a PVDF membrane (Millipore). To probe for pluripotency markers, membranes were incubated with the indicated antibodies against Oct4 (1:1000, Abcam, Cambridge, UK), Nanog (1:1000, Genetex), Lin28 (1:1000, Genetex) or Sox2 (1:1000, Genetex). The CDK and cyclin antibodies were from the CDK and Cyclin Antibody Sampler Kits (Cell Signalling Technology, #9868 and #9869 respectively), including antibodies against cylin D1, D2, E1, and CDK4, CDK9 (1:1000). […]

B1: EpEX: extracellular domain of human EpCAM, 265 amino acids in length (SEQ ID NO: 2) (protein, listed as Homo sapiens)
chain: MAPPQVLAFGLLLAAATATFAAAQEECVCENYKLAVNCFVNNNRQCQCTSVGAQNTVICSKLAAKCLVMKAEMNGSKLGRRAKPEGALQNNDGLYDPDCDESGLFKAKQCNGTSMCWCVNTAGVRRTDKDTEITCSERVRTYWIIIELKHKAREKPYDSKSLRTALQKEITTRYQLDPKFITSILYENNVITIDLVQNSSQKTQNDVDIADVAYYFEKDVKGESLFHSKKMDLTVNGEQLDLDPGQTLIYYVDEKAPEFSMQGLK
As for B1, in the assay on γ-secretase, the “activation of γ-secretase” value was “induced”. In addition, the “phosphorylation of EGFR at Tyr845” value with EGFR (Tyr845) is on record as “induced EGFR phosphorylation at Tyr845 in a time-dependent manner; also recorded: can induce”. Besides, the MSC doubling time was 16.1 ± 0.1 h in assay [1] (P3, EpEX 3 μg/mL (0 μg/mL: 17.6 ± 0.3 h)); 22.5 h and 22.5 ± 0.4 h in assay [1] (P9, EpEX 3 μg/mL (0 μg/mL: 38.2 ± 1.7 h)). The “activation of TACE” value in the assay with TACE is “induced”.
